Laboratory results from the supplement of paper PMC10567573.

B1: BRF1 (parent)
chain: FVESSGGGSSAVGQFVSLDGAGKT
B2: ANKRD9 (parent)
chain: VGAAGSARQELLGDRPRWQRLLGE

Variants of: B1
Experiment: protein stability index of a GFP-peptide fusion (GPS, HEK-293T) (PSI 1-6); higher = more stable
Conditions: c terminus: a fixed tail appended
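Further: lentivirally expressed fusions sorted by FACS into six bins by GFP to DsRed ratio, PSI derived from sequencing read proportions per bin multiplied by bin number.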

Protein stability index of substitutions, site by site:
G22: P 3.13, R 1.87, I 2.62, D 3.15, K 1.73, H 2.65, T 2.09, Y 1.9, Q 2.26, A 3, E 3.08, C 1.79, S 2.47, W 1.84, L 1.6, V 2.29, N 2.39, F 2.35
T24: G 2.26, L 2.02, V 2.33, R 3.12, F 1.62, I 2.59, K 2.44, N 2.15, S 2.19, Y 1.85, M 2, A 2.98, Q 2.86, P 2.48, W 2.24, D 2.72, E 2.3, H 1.79, C 2.27
A21: W 1.73, Y 1.91, V 1.92
K23: M 2.16, W 2.28, H 2.24, V 2.12, S 2, N 2.19, D 2.68, F 1.59, L 2.21, R 2.21, A 2.04, E 2.56, Y 2.05, T 2.55, I 2.02, Q 2.01, G 2.38, C 2.23, P 2.73

Variants of: B2
Experiment: as above
Conditions: c terminus: a fixed tail appended

Protein stability index: each site, then its substitutions
A7: Q 4.21, S 2.93, K 2.94, R 3.08, C 3.44, P 2.98, V 2.73, H 3.36, F 2.49, I 3.49, W 2.53, M 3.87, L 4.03, N 3.74, D 3.65, E 5, Y 2.43, T 3.62
G2: Q 4.06, F 2.57, L 2.71, R 4.84, H 2.56, C 2.24, M 2.69, N 3.82, V 2.33, D 3.32, T 3.06, A 3.23, Y 2.24, P 3.11, W 2, I 2.67, S 3.39, E 3.29
L11: H 2.85, E 4.13, G 3.43, R 2.48, Y 3.5, K 3.69, P 3.86, N 3.71, T 3.6, S 4.02, M 3.77, I 3.3, F 4.5, V 3.98, C 3.22, W 2.61, Q 3.8
Q9: Y 2.27, I 2.96, F 2.81, G 3.41, K 3.05, R 3.04, P 3.29, S 3.46, A 3.37, L 2.81, N 2.74, M 3, C 2.56, V 3.14, H 3.38, D 3.7, T 3.13, E 2.11
R8: N 4.03, W 2.35, D 3.53, A 2.96, K 3.15, C 3.02, Q 3.37, I 3.08, T 2.76, Y 2.96, S 3.47, P 2.94, V 3.32, L 2.92, G 3.68, F 2.5, H 3.39, E 4.01
E10: I 2.4, S 3.54, V 3.25, R 2.71, C 2.75, W 1.76, Q 3, H 2.6, G 2.55, A 2.85, T 2.39, Y 3.03, F 3.33, N 3.22, P 1.62, L 2.13, D 3.37, M 2.63
P16: G 2.98, N 3.88, E 4.72, L 3.12, M 2.94, D 3.1, Q 2.65, C 3.24, A 3.68, H 2.83, I 2.92, K 3.68
A3: M 2.53, H 2.91, W 2.53, V 3.89, Q 3, K 2.86, F 2.52, C 1.52, R 3.06, E 3.55, I 3.48, D 3.81, P 3.58, T 3.14, S 2.78, N 3.19, G 3.49
R15: D 4.12, Q 3.96, T 3.68, F 2.75, S 4.15, K 3.06, Y 2.66, G 3.75, W 3.1, V 3.41, C 3.11, E 3.27, M 3.05, P 3.11, H 4.05, I 2.73, L 2.51, N 3.6
A4: G 1.81, K 2.11, W 2.62, D 3.35, L 3.18, E 2.91, V 2.92, F 2.44, P 3.39, T 4.35, Q 4.11, I 2.84, R 3.02, S 3.24, M 3.1, Y 2.08, C 2.09
L12: G 3.79, S 4.15, M 3.43, E 3.7, P 3.55, Q 3.27, K 3.95, N 3.43, V 2.49, R 2.12, D 4.17, W 2.35, F 2.57, T 3, A 3.64, I 4.09, Y 3.21, H 3.6
V1: I 2.35, M 3.03, Y 2.56, F 2.7, Q 3.7, C 1.95, P 3.62, E 2.77, R 2.75, H 3.33, T 3.38, G 3.13, K 3.69, D 4.49, L 2.86, A 3.58
D14: T 2.94, P 3.13, L 2.36, S 3.25, A 2.83, F 2.12, H 3.24, E 3.27, C 1.39, Q 2.35, V 2.27, G 3.18, M 2.76, N 2.6, Y 2.86, I 2.56, R 2.75
S6: I 2.27, E 3.88, K 2.72, A 2.6, F 2.85, V 2.86, Y 2.73, H 2.88, C 1.21, D 3.8, G 2.85, R 2.62, T 3.01, L 2.49, M 3.65, N 3.77
G5: R 2.27, E 4.56, M 2.37, C 1.49, L 2.68, Y 1.93, H 2.68, K 2.69, V 2.9, F 2.86, I 2.69, W 2.9, P 3.53, A 3, N 2.9, Q 3.09, S 4, D 2.48, T 2.3
G13: D 2.73, N 3.55, V 2.63, E 3.92, R 2.81, M 3.02, S 2.72, C 2.77, A 3.9, K 3.39, Q 2.76, T 2.97, I 2.86, H 3.46, P 3.7, L 2.66, Y 2.77, W 1.9
